± gives the uncertainty stated by the source.
Experiment: amyloid nucleation score (Sup35N fusion, yeast selection) (log enrichment); library NNK2; higher = more nucleation; inactive = no reads after selection
Summary of the method: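 Yeast lacking psi expressed peptides of 20 random codons fused to Sup35N, received 100 μM copper sulfate for 24 hours, and were then grown for 7 days at 30°C on medium lacking adenine and uracil. Illumina sequencing of input and output plasmid inserts provided the reads. Nucleation scores are DiMSum log enrichments of output over input, centred on the mode of non-aggregating sequences. Any sequence with under 100 input reads was excluded.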

First: TVIFVCHFTKVDCVSNTQSY
Second: CCGFGDEKDN
The amyloid nucleation score of the first is higher: 3.42 ± 0.1 for the first, -0.206 ± 1.1 for the second.

TMGYNFRCYVPLMNMLVRGV and RPVWDNWLTGFLGMPMWGKT are within error of each other in amyloid nucleation score: -0.614 ± 0.54 for the first, 0.112 ± 0.43 for the second.

First: IYKQLMVCHKCSDSAVTGYQ
Second: AILLGLWCCTWFREALACLA
The amyloid nucleation score of the first is higher: 6.14 ± 0.075 for the first, 1.04 ± 0.29 for the second.

Going from NLFNLSCHGLLNERKHLSGV to TLNRTW, the amyloid nucleation score rises from -0.442 ± 0.44 to 0.166 ± 0.16.

Compared with LMWADLLLKKLILFA, NYLMWVITSTYWRHGRESWA is higher in amyloid nucleation score: -0.334 ± 0.64 for the first, 3.03 ± 0.057 for the second.

Compared with LYQNSTILWLCCLWPVPYSG, FNLAPLMVIMPGIMGWGLLG is lower in amyloid nucleation score: 9.921 ± 0.076 for the first, 1.67 ± 0.16 for the second.

Going from TVMTFEYSEHVFRDMDT to AAIMDTKVWLPETWHTF, the amyloid nucleation score rises from -0.501 ± 1 to 4.86 ± 0.049.

RMSRVEWIPHVDFYPTHGLI and TRLPEMGLMDLITRSCYNRD are within error of each other in amyloid nucleation score: -0.439 ± 0.63 for the first, -1.35 ± 0.75 for the second.

Going from RSTNTRIIKLTKCAGPNRDE to ESNKRTTCLFH, the amyloid nucleation score falls from 1.14 ± 0.17 to 0.331 ± 0.32.

LEQFYCTMGSSFNMNGGMVI and ICVRERNRSYRMPFMMFVVR are within error of each other in amyloid nucleation score: -0.436 ± 0.29 for the first, -0.017 ± 1 for the second.

First: RFSCTKFRGKGLFWMLKCVL
Second: ICCGVEHWYVIGFNVGSFYF
The amyloid nucleation score of the first is lower: -0.835 ± 0.27 for the first, 7.964 ± 0.039 for the second.

First: LSINLSDMNFVVHSCLGSLG
Second: VRPMLGGSNRLHFSMVFDDD
The amyloid nucleation score of the first is lower: 5.45 ± 0.077 for the first, 5.964 ± 0.059 for the second.

PWETRSNA and FYFLLG are within error of each other in amyloid nucleation score: -0.012 ± 0.46 for the first, 0.587 ± 0.32 for the second.

QRDCSYEYLTTKLTAELRGS and ARQDYWIRWLTALSMMYGSG are within error of each other in amyloid nucleation score: 0.216 ± 0.55 for the first, -0.071 ± 0.31 for the second.

PGYSSNSCERDLLGRASVWL and FKVRIVGPLTAGMVE are within error of each other in amyloid nucleation score: -0.593 ± 0.74 for the first, -1.01 ± 0.34 for the second.

LDWAWACSWVVA and KPLLVN are within error of each other in amyloid nucleation score: 0.389 ± 0.8 for the first, 0.271 ± 0.46 for the second.

Going from NIRNRSVNDLIRRDAYRLAL to NARICDTLVLKLLTVLLENG, the amyloid nucleation score rises from -0.175 ± 0.8 to 3.44 ± 0.12.

Going from VYQMCFMAILVIRIVR to DCLYGRFRHRHG, the amyloid nucleation score rises from 0.439 ± 0.25 to 5.723 ± 0.035.

Going from FCNNWDFF to VTHNYKFIQLGSEK, the amyloid nucleation score rises from 2.41 ± 0.14 to 4.12 ± 0.074.

VRNFCFDYSVWYENGLTWKR and IKVNCIEYYHSLRSRFDTSA are within error of each other in amyloid nucleation score: 0.527 ± 0.66 for the first, 0.065 ± 1.1 for the second.

DTFINWIWRGYGKWMCSGRR and TMDYRTND are within error of each other in amyloid nucleation score: -0.135 ± 0.39 for the first, 0.443 ± 0.23 for the second.

LSINSFTKHQ and RSFIGDNYISLRC are within error of each other in amyloid nucleation score: 0.148 ± 1 for the first, -0.184 ± 0.29 for the second.

KILSYASLSAGSFLVQ and CVRCTFCIVSVICFSIYLSE are within error of each other in amyloid nucleation score: -0.531 ± 1.1 for the first, -0.448 ± 0.55 for the second.

Going from YYFMVL to CKWIKEIVVED, the amyloid nucleation score falls from 0.656 ± 0.35 to -0.981 ± 1.

NPELRRGWFTWYPVGPGMKQ and LFTEISKYQVYGVYWTALFE are within error of each other in amyloid nucleation score: 0.175 ± 0.54 for the first, -0.137 ± 1.1 for the second.

Going from NWNLRHRCAGWYCDRRKVLR to FYINVRLYARVACRCMRVPC, the amyloid nucleation score rises from 4.28 ± 0.085 to 5.4 ± 0.076.

SRNISQKLHTYMTYGSKVGY and LYPSFEDTLRWPSPRGMKMC are within error of each other in amyloid nucleation score: -0.229 ± 0.32 for the first, 0.182 ± 1.1 for the second.

KLGKPFARRKFCICNSQWVG and GSVHANKD are within error of each other in amyloid nucleation score: -0.743 ± 0.31 for the first, -0.299 ± 0.63 for the second.

In the case of TYLSVGMNLLVGSPFNYNDL, the amyloid nucleation score is reported as “inactive”.
For CLDNNKNYLDSRCGIRCY, the amyloid nucleation score was “inactive”.
For NSMSDLFSFSY, the amyloid nucleation score was “inactive”.
For IVIPSSK, the amyloid nucleation score was “inactive”.
With RRRVDSLIFYIKMRVLFNMF the amyloid nucleation score was “inactive”.
In the case of VHNVLKRVYSYGFFNKEHIY, the amyloid nucleation score is reported as “inactive”.
